Laboratory results reported in US20180265864, “Genome Engineering Methods Using a Cytosine-Specific CAS9” (Florida State University Research Foundation, Inc., published 2018).

T1: AceCas9 (in E. coli) (Acidothermus cellulolyticus 11B) (UniProt A0LWB3)
T1 sequence: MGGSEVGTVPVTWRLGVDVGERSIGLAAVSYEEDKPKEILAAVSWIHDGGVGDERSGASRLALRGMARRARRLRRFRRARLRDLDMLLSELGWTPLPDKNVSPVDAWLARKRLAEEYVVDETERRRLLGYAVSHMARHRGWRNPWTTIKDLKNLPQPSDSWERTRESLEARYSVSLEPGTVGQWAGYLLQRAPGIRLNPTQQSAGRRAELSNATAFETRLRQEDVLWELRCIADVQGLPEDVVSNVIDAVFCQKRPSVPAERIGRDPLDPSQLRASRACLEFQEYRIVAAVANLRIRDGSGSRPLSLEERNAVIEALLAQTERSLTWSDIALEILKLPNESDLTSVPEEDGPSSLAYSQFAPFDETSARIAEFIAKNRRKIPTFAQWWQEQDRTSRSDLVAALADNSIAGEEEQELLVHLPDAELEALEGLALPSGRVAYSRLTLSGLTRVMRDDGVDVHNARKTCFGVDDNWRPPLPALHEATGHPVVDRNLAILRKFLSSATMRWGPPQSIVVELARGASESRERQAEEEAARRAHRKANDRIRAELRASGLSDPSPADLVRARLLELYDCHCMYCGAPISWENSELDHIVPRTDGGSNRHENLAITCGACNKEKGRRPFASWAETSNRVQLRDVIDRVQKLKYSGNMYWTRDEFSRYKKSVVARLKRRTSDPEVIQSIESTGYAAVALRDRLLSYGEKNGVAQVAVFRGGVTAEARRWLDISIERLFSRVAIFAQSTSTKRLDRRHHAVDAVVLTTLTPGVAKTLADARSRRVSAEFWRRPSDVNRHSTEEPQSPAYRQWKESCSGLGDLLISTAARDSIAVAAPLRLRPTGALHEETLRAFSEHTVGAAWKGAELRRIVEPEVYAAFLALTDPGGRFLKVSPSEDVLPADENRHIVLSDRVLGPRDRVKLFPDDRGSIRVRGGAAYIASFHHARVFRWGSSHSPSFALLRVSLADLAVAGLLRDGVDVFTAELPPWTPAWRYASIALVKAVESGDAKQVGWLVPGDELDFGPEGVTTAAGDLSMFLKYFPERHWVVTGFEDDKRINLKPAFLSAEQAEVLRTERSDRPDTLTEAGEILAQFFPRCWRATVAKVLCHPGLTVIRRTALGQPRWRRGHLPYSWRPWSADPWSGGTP

T2: AceCas9 (Type II-C Cas9) (Acidothermus cellulolyticus 11B, UniProt A0LWB3 A0LWB3:1-1138)
T2 sequence: T1 sequence

B1: sgRNA 24-nt spacer (template bottom strand; RNA is reverse complement without promoter) ; pUC19 WT target, BamHI-linearized (ssRNA ; dsDNA)
RNA: GGUAGGAUGGCAAGAUCCUGGUAUGCUGGGGAGCCUGAAAAGGCUACCUAGCAAGACCCCUUCGUGGGGUCGCAUUCUUCACCCCCUCGCAGCAGCGAGGGGGUUC
DNA 1: GGTAGGATGGCAAGATCCTGGTATACACC
DNA 2: GGTGTATACCAGGATCTTGCCATCCTACC

What was measured:
[1] = target: T1, AceCas9 (in E. coli) (Acidothermus cellulolyticus 11B); test: cell_activity
AceCas9 (Type II-C Cas9) = target: T2, AceCas9 (Type II-C Cas9); test: cleavage_in_vitro; 50 C; conditions: tags: C-terminal His6 (pET28b, E. coli Rosetta DE3); linear plasmid

Row | Molecule | activity ([1]; E. coli ccdB selection) | other results
1 | sgRNA 22-nt spacer ; ccdB plasmid PAMWT | < 0.01 % survival | 
2 | sgRNA 26-nt spacer ; ccdB plasmid PAMC(4,5)T |  | activity ([1]; [28,29], NNNTT PAM): < 0.001 % survival
3 | sgRNA 26-nt spacer ; ccdB plasmid PAMWT | 13.6 % survival | 
4 | B1 |  | activity (AceCas9 (Type II-C Cas9)): 0.53 min⁻¹
